Source: publication PMC5448812, “Distinct DNA-binding surfaces in the ATPase and linker domains of MutLγ determine its substrate specificities and exert separable functions in meiotic recombination and mismatch repair”

How the values were obtained:
HisFlag-Mlh1;Mlh3 [1] = biological target: T1, HisFlag-Mlh1;Mlh3 (Saccharomyces cerevisiae (S288c strain …, UniProt P38920;Q12083 1-769;1-715, |)); assay: EMSA; Hill slope 2.9 +/- 0.27; 5 mM EDTA; EMSA: 25 mM Tris-HCl pH 7.5, 15% glycerol, 100 mM NaCl, 2 mM DTT, 5 mM EDTA, 1 mg/ml BSA, 30 min 30 C, 1 nM DNA; pull-down: similar, 10% glycerol, 0.2 mg/ml BSA, 0.1% Triton X-100, 4 C; conditions: protein: recombinant;recombinant; tags: N-terminal 6xHis-2xFlag;none; copies: 1;1; label: 5'-32P when used as probe
T1 sequence 1: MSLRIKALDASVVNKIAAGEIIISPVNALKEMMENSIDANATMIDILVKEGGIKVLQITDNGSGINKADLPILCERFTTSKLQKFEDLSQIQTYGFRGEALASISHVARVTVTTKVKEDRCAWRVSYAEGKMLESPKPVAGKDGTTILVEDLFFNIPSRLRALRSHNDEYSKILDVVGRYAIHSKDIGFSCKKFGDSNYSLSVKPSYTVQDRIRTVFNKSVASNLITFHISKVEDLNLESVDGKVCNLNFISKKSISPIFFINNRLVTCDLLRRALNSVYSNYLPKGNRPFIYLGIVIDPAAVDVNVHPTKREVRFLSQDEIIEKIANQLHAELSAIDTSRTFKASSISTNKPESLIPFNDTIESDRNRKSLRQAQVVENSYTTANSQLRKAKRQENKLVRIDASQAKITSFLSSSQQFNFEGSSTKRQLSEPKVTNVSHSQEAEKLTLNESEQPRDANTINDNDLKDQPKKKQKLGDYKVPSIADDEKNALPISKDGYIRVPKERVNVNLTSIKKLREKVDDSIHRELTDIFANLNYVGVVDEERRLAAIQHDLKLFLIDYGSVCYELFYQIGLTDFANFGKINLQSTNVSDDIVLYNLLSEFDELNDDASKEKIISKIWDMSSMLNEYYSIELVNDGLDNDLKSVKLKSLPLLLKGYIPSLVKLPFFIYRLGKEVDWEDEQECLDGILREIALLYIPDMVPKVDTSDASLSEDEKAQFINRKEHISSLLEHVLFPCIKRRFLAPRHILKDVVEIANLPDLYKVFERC
T1 sequence 2: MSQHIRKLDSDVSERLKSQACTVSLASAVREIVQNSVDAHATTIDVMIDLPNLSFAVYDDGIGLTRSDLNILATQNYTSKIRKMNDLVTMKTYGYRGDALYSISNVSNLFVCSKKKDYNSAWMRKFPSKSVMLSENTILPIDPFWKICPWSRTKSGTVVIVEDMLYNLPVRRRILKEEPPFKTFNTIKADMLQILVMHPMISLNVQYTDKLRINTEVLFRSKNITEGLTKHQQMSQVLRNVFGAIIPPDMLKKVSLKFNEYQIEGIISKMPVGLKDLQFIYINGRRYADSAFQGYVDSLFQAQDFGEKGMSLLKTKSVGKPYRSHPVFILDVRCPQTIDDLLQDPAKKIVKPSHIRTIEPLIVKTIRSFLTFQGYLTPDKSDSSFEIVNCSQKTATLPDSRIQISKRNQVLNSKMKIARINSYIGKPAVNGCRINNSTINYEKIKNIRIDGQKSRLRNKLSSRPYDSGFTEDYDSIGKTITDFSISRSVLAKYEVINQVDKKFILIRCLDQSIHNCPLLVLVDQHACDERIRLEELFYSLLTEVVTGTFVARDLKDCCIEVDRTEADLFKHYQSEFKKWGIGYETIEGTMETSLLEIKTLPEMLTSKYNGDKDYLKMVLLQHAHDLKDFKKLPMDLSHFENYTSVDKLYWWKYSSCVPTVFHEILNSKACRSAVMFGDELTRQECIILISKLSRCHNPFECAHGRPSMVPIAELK

HisFlag-Mlh1;Mlh3 [2] = biological target: T1, HisFlag-Mlh1;Mlh3; assay: EMSA; Hill slope 2.0 +/- 0.05; 5 mM EDTA; EMSA: 25 mM Tris-HCl pH 7.5, 15% glycerol, 100 mM NaCl, 2 mM DTT, 5 mM EDTA, 1 mg/ml BSA, 30 min 30 C, 1 nM DNA; pull-down: similar, 10% glycerol, 0.2 mg/ml BSA, 0.1% Triton X-100, 4 C; conditions: protein: recombinant;recombinant; tags: N-terminal 6xHis-2xFlag;none; copies: 1;1; label: 5'-32P when used as probe; four-way junction, 40 bp arms
HisFlag-Mlh1;Mlh3 [3] = biological target: T1, HisFlag-Mlh1;Mlh3; assay: FeBABE footprinting; cleavage in Mlh1 N-terminal domain and linker; EMSA: 25 mM Tris-HCl pH 7.5, 15% glycerol, 100 mM NaCl, 2 mM DTT, 5 mM EDTA, 1 mg/ml BSA, 30 min 30 C, 1 nM DNA; pull-down: similar, 10% glycerol, 0.2 mg/ml BSA, 0.1% Triton X-100, 4 C; conditions: protein: recombinant;recombinant; tags: N-terminal 6xHis-2xFlag;none; copies: 1;1; label: 3'-biotin
[4] = biological target: T2, Mlh1 untagged;HisFlag-Mlh3 (Saccharomyces cerevisiae (S288c strain …, UniProt P38920;Q12083 1-769;1-715, |)); assay: FeBABE footprinting; cleavage in Mlh3 N-terminal domain and linker; EMSA: 25 mM Tris-HCl pH 7.5, 15% glycerol, 100 mM NaCl, 2 mM DTT, 5 mM EDTA, 1 mg/ml BSA, 30 min 30 C, 1 nM DNA; pull-down: similar, 10% glycerol, 0.2 mg/ml BSA, 0.1% Triton X-100, 4 C; conditions: protein: recombinant;recombinant; tags: none;N-terminal 6xHis-2xFlag; copies: 1;1; label: 3'-biotin
T2 sequence 1: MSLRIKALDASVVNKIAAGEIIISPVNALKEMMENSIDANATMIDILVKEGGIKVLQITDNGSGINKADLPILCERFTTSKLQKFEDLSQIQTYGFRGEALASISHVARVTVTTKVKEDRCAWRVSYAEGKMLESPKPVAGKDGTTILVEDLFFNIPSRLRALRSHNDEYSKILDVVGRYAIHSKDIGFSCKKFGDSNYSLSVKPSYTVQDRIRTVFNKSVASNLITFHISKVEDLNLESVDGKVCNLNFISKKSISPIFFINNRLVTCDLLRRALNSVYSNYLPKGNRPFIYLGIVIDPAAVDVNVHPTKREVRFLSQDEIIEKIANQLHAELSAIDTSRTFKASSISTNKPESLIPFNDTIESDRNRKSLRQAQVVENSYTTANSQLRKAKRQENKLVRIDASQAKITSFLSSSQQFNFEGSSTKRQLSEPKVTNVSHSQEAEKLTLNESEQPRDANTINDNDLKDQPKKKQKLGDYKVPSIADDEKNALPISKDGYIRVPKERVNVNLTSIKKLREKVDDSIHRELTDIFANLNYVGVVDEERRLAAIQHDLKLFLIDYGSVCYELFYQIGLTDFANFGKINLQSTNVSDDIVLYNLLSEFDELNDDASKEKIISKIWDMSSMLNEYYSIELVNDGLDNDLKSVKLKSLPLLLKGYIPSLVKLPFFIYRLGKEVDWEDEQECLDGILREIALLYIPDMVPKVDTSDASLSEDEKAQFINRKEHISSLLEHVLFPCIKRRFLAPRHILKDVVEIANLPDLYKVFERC
T2 sequence 2: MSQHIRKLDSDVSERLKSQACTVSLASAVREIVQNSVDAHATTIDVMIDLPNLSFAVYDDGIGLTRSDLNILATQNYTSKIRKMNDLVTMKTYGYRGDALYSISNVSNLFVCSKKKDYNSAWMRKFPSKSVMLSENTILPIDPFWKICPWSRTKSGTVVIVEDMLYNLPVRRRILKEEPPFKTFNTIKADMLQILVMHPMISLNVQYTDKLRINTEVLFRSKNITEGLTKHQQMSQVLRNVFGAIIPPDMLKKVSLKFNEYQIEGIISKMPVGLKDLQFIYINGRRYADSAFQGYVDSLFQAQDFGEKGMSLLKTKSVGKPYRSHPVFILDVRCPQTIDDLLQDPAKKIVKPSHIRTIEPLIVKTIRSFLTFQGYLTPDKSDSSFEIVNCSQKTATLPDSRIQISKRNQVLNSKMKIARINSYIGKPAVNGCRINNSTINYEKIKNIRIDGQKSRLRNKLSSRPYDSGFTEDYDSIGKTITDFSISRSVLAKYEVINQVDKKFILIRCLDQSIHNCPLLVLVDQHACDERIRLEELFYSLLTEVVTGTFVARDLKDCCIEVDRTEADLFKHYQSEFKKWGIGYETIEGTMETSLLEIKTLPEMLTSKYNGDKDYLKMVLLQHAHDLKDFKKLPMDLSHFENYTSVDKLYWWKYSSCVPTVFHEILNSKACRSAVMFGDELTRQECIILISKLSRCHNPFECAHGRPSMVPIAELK

HisFlag-Mlh1;Mlh3 [5] = biological target: T1, HisFlag-Mlh1;Mlh3; assay: FeBABE footprinting; mostly Mlh1 linker; EMSA: 25 mM Tris-HCl pH 7.5, 15% glycerol, 100 mM NaCl, 2 mM DTT, 5 mM EDTA, 1 mg/ml BSA, 30 min 30 C, 1 nM DNA; pull-down: similar, 10% glycerol, 0.2 mg/ml BSA, 0.1% Triton X-100, 4 C; conditions: protein: recombinant;recombinant; tags: N-terminal 6xHis-2xFlag;none; copies: 1;1; label: 3'-biotin on strand 1; four-way junction, 40 bp arms
[6] = biological target: T2, Mlh1 untagged;HisFlag-Mlh3; assay: FeBABE footprinting; Mlh3 linker enriched; EMSA: 25 mM Tris-HCl pH 7.5, 15% glycerol, 100 mM NaCl, 2 mM DTT, 5 mM EDTA, 1 mg/ml BSA, 30 min 30 C, 1 nM DNA; pull-down: similar, 10% glycerol, 0.2 mg/ml BSA, 0.1% Triton X-100, 4 C; conditions: protein: recombinant;recombinant; tags: none;N-terminal 6xHis-2xFlag; copies: 1;1; label: 3'-biotin on strand 1; four-way junction, 40 bp arms
HisFlag-Mlh1;Mlh3 [7] = biological target: T1, HisFlag-Mlh1;Mlh3; assay: competition; labeled poly-dT 80 nt; 500x excess in nt; EMSA: 25 mM Tris-HCl pH 7.5, 15% glycerol, 100 mM NaCl, 2 mM DTT, 5 mM EDTA, 1 mg/ml BSA, 30 min 30 C, 1 nM DNA; pull-down: similar, 10% glycerol, 0.2 mg/ml BSA, 0.1% Triton X-100, 4 C; conditions: protein: recombinant;recombinant; tags: N-terminal 6xHis-2xFlag;none; copies: 1;1

B1: ssDNA80 (cb099, poly-dT) (ssDNA)
DNA: TTTTTTTTTTTTTTTTTTTTTTTTTTTTTTTTTTTTTTTTTTTTTTTTTTTTTTTTTTTTTTTTTTTTTTTTTTTTTTTT
- Kd (HisFlag-Mlh1;Mlh3 [1]): 45.9 nM

B2: HJ80 (cb095-098) (structured_DNA)
DNA 1: CTAGTATAGAGCCGGCGCGCCATGTCTAGATAGCGTTAGGTCTGCCGAATAGTACTACTCGGATCCCGAGCGAACCACGC
DNA 2: GCGTGGTTCGCTCGGGATCCGAGTAGTACTATTCGGCAGAGGATTCGAATAGGCCTAATCGAATTCCGCCATCGATGCAC
DNA 3: GTGCATCGATGGCGGAATTCGATTAGGCCTATTCGAATCCAGACGCGAGTAGATCTTCACGGTACCCGCGGTTACCCGTG
DNA 4: CACGGGTAACCGCGGGTACCGTGAAGATCTACTCGCGTCTCCTAACGCTATCTAGACATGGCGCGCCGGCTCTATACTAG
- Kd (HisFlag-Mlh1;Mlh3 [2]): 72.9 nM

B3: ssDNA+ (cb361) (ssDNA)
DNA: TTTTTTTTTTTTTTTTTTTTTTTTTTTTTTTTTTTTTTTTTTTTTTTTTTTTTTTTTTTTTTTTTTTTTTTTTTTTTTTT
modifications: phosphorothioates every 8 nt, FeBABE-conjugated
- binding result (HisFlag-Mlh1;Mlh3 [3]): binds
- binding result [4]: binds

B4: HJ+1 (cb256, 351, 369, 98) (structured_DNA)
DNA 1: CTAGTATAGAGCCGGCGCGCCATGTCTAGATAGCGTTAGGTCTGCCGAATAGTACTACTCGGATCCCGAGCGAACCACGC
DNA 2: GCGTGGTTCGCTCGGGATCCGAGTAGTACTATTCGGCAGAGGATTCGAATAGGCCTAATCGAATTCCGCCATCGATGCAC
DNA 3: GTGCATCGATGGCGGAATTCGATTAGGCCTATTCGAATCCAGACGCGAGTAGATCTTCACGGTACCCGCGGTTACCCGTG
DNA 4: CACGGGTAACCGCGGGTACCGTGAAGATCTACTCGCGTCTCCTAACGCTATCTAGACATGGCGCGCCGGCTCTATACTAG
modifications: phosphorothioates in strands 2 and 3 (segment 1), FeBABE-conjugated
- binding result (HisFlag-Mlh1;Mlh3 [5]): binds
- binding result [6]: binds

B5: ssDNA 10 nt competitor (poly-dT?) (ssDNA)
DNA: TTTTTTTTTT
- binding result (HisFlag-Mlh1;Mlh3 [7]): no binding
